# Results as given in IntAct's records for PubMed 10413501.
# B1: Ribonuclease inhibitor (Homo sapiens), P13489 (parent)
# chain: MSLDIQSLDIQCEELSDARWAELLPLLQQCQVVRLDDCGLTEARCKDISSALRVNPALAELNLRSNELGDVGVHCVLQGLQTPSCKIQKLSLQNCCLTGAGCGVLSSTLRTLPTLQELHLSDNLLGDAGLQLLCEGLLDPQCRLEKLQLEYCSLSAASCEPLASVLRAKPDFKELTVSNNDINEAGVRVLCQGLKDSPCQLEALKLESCGVTSDNCRDLCGIVASKASLRELALGSNKLGDVGMAELCPGLLHPSSRLRTLWIWECGITAKGCGDLCRVLRAKESLKELSLAGNELGDEGARLLCETLLEPGCQLESLWVKSCSFTAACCSHFSSVLAQNRFLLELQISNNRLEDAGVRELCQGLGQPGSVLRVLWLADCDVSDSSCSSLAATLLANHSLRELDLSNNCLGDAGILQLVESVRQPGCLLEQLVLYDIYWSEEMEDRLQALEKDKPSLRVIS
# Variants of: B1
# Settings: with rnas1_bovin RNASE1, P61823
# Sequence of rnas1_bovin RNASE1, P61823 (P61823 whole entry): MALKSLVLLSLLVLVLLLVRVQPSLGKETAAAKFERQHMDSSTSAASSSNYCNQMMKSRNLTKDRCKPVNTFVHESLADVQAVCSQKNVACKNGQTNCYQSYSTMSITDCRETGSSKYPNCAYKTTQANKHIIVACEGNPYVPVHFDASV
row,Variant,effect of a mutation on the interaction
1,MSLDIQSLDIQCEELSDARWAELLPLLQQCQVVRLDDCGLTEARCKDISSALRVNPALAELNLRSNELGDVGVHCVLQGLQTPSCKIQKLSLQNCCLTGAGCGVLSSTLRTLPTLQELHLSDNLLGDAGLQLLCEGLLDPQCRLEKLQLEYCSLSAASCEPLASVLRAKPDFKELTVSNNDINEAGVRVLCQGLKDSPCQLEALKLESCGVTSDNCRDLCGIVASKASLRELALGSNKLGDVGMAELCPGLLHPSSRLRTLWIWECGITAKGCGDLCRVLRAKESLKELSLAGNELGDEGARLLCETLLEPGCQLESLWVKSCSFTAACCSHFSSVLAQNRFLLELQISNNRLEDAGVRELCQGLGQPGSVLRVLWLADCDVSDSSCSSLAATLLANHSLRELDLSNNCLGDAGILQLVESVRQPGCLLEQLVLYDIFWSEEMEDRLQALEKDKPSLRVIS [Y438F],decreasing interaction

# Variants of: B1
# Settings: with rnas1_bovin RNASE1, P61823
# Remark: another data set of the same source
row,Variant,effect of a mutation on the interaction
1,MSLDIQSLDIQCEELSDARWAELLPLLQQCQVVRLDDCGLTEARCKDISSALRVNPALAELNLRSNELGDVGVHCVLQGLQTPSCKIQKLSLQNCCLTGAGCGVLSSTLRTLPTLQELHLSDNLLGDAGLQLLCEGLLDPQCRLEKLQLEYCSLSAASCEPLASVLRAKPDFKELTVSNNDINEAGVRVLCQGLKDSPCQLEALKLESCGVTSDNCRDLCGIVASKASLRELALGSNKLGDVGMAELCPGLLHPSSRLRTLWIWECGITAKGCGDLCRVLRAKESLKELSLAGNELGDEGARLLCETLLEPGCQLESLWVKSCSFTAACCSHFSSVLAQNRFLLELQISNNRLEDAGVRELCQGLGQPGSVLRVLWLADCDVSDSSCSSLAATLLANHSLRELDLSNNCLGDAGILQLVESVRQPGCLLEQLVLFDIYWSEEMEDRLQALEKDKPSLRVIS [Y435F],decreasing interaction
